According to IntAct's records for PubMed 32637409:

B1: Mitochondrial Rho GTPase 1 (Homo sapiens), Q8IXI2 (parent)
chain: MKKDVRILLVGEPRVGKTSLIMSLVSEEFPEEVPPRAEEITIPADVTPERVPTHIVDYSEAEQSDEQLHQEISQANVICIVYAVNNKHSIDKVTSRWIPLINERTDKDSRLPLILVGNKSDLVEYSSMETILPIMNQYTEIETCVECSAKNLKNISELFYYAQKAVLHPTGPLYCPEEKEMKPACIKALTRIFKISDQDNDGTLNDAELNFFQRICFNTPLAPQALEDVKNVVRKHISDGVADSGLTLKGFLFLHTLFIQRGRHETTWTVLRRFGYDDDLDLTPEYLFPLLKIPPDCTTELNHHAYLFLQSTFDKHDLDRDCALSPDELKDLFKVFPYIPWGPDVNNTVCTNERGWITYQGFLSQWTLTTYLDVQRCLEYLGYLGYSILTEQESQASAVTVTRDKKIDLQKKQTQRNVFRCNVIGVKNCGKSGVLQALLGRNLMRQKKIREDHKSYYAINTVYVYGQEKYLLLHDISESEFLTEAEIICDVVCLVYDVSNPKSFEYCARIFKQHFMDSRIPCLIVAAKSDLHEVKQEYSISPTDFCRKHKMPPPQAFTCNTADAPSKDIFVKLTTMAMYPHVTQADLKSSTFWLRASFGATVFAVLGFAMYKALLKQR
partner: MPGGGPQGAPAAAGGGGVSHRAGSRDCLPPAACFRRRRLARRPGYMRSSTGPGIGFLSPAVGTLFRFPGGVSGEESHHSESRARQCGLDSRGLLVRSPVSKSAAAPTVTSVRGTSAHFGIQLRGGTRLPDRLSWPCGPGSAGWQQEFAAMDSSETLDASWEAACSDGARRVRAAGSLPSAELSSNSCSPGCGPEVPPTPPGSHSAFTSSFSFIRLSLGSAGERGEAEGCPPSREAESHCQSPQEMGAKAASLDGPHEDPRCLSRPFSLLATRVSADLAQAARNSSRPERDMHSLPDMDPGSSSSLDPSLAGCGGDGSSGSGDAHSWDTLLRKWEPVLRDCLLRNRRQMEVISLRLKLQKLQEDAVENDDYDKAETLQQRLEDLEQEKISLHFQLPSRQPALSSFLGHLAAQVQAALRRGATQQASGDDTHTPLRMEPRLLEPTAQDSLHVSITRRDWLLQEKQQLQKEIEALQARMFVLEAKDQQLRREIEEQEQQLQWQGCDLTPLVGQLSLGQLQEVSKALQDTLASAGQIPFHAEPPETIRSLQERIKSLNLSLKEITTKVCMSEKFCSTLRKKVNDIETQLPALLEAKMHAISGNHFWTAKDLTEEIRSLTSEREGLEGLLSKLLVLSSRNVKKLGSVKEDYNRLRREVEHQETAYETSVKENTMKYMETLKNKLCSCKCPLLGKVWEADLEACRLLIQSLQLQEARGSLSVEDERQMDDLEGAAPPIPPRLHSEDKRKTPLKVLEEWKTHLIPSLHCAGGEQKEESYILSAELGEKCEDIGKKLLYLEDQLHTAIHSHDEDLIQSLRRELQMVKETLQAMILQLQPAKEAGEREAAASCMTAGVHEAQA

Variants of: B1
Settings: with disc1_human DISC1, Q9NRI5

Row | Variant | effect of a mutation on the interaction
1 | P13V | increasing interaction
2 | T18N | with no effect
